# According to the supplement of paper PMC9732359:
# ± gives the uncertainty stated by the source.
# Test: protein stability index of a GFP-peptide fusion (yeast GPS) (PSI 1-4); higher = more stable; sorted into four equal gates, so the index is relative within each strain
# How it was run: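 Peptides tiling yeast proteins in 17-residue segments were fused downstream of GFP, with Cherry expressed from the same plasmid. As a pooled library in yeast, mid-log cultures grown in leucine-free medium were sorted into four equal gates by GFP/Cherry fluorescence ratio. Gate plasmids were PCR-amplified and Illumina-sequenced, and barcodes linked reads to strains. Each peptide received a protein stability index equal to the sum of each gate's read frequency times its gate number.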
Sequence,protein stability index (doa10∆),protein stability index (pdr5∆),protein stability index (san1∆),protein stability index (ubr1∆)
NAPAWFKLSSESVIEQI [RPS13],1.98 ± 0.064,1.73 ± 0.054,2.34 ± 0.13,2.48 ± 0.067
LAGKYIPNLTAKPFQVT [FAS1],2.37 ± 0.06,2.76 ± 0.053,2.29 ± 0.1,2.63 ± 0.048
QELAKSIRSRRPYQVNV [PRE1],2.92 ± 0.14,2.88 ± 0.078,3.2 ± 0.14,3.16 ± 0.078
DVVAHRQLAGAIGYEPL [DIS3],2.65 ± 0.074,2.43 ± 0.075,1.88 ± 0.15,2.19 ± 0.11
QQQLRNQIQRQQQQQFR [SNF5],1.43 ± 0.18,,1.4 ± 0.21,1.55 ± 0.061
DKTAVKLDTEVKNTNAN [SWP82],2.5 ± 0.077,2.83 ± 0.076,2.88 ± 0.099,1.96 ± 0.056
RALVEHIIQAKADAQRE [RPL19A],1.67 ± 0.26,,,
NLWKNIFLSKENSAVAA [COR1],1.85 ± 0.053,2.24 ± 0.059,2.01 ± 0.13,1.61 ± 0.063
EEKKKEHEEKEKERETN [RPN2],3.3 ± 0.23,3.37 ± 0.1,3.38 ± 0.15,3.44 ± 0.24
VNADTVGKTVKQLIMES [NSL1],3.22 ± 0.077,3.13 ± 0.055,2.94 ± 0.058,3.33 ± 0.05
AFRTLRLARSEKKFRGI [RPL13A],3.4 ± 0.24,3.49 ± 0.15,,3.3 ± 0.084
DIEVPDVNALKFNNTQR [SNF12],2.97 ± 0.1,3.29 ± 0.06,2.98 ± 0.047,3.09 ± 0.051
KKEEKLNIGKNFAHSDS [SIR4],3.18 ± 0.059,2.97 ± 0.057,3.12 ± 0.033,3.11 ± 0.037
EIRRFQKSTELLIRKLP [HHT1],2.64 ± 0.13,2.74 ± 0.095,1.87 ± 0.24,2.25 ± 0.12
GKKWFEVSQFLIENGAS [NAS6],1.91 ± 0.084,1.55 ± 0.061,1.4 ± 0.1,1.49 ± 0.074
SSVNEDTFLPPPPPPPS [PRP8],2.73 ± 0.041,2.72 ± 0.04,2.44 ± 0.038,2.46 ± 0.037
GGNGPEDFQQHEQIRRK [RPO26],3.3 ± 0.1,3.39 ± 0.072,3.09 ± 0.089,3.44 ± 0.083
EVDSASDFISKLEYPHT [RPN3],2.96 ± 0.087,3.09 ± 0.087,2.93 ± 0.075,3.02 ± 0.079
AYIKLLDQTKDTRITHL [SNF2],2.65 ± 0.085,3.03 ± 0.072,2.78 ± 0.06,2.39 ± 0.062
EIEELKSSIQNLNELES [SMC3],1.66 ± 0.2,2.06 ± 0.17,2.07 ± 0.28,2.71 ± 0.21
QIMQLKKICNHPFVFEE [SNF2],2.77 ± 0.075,2.38 ± 0.053,2.53 ± 0.063,2.55 ± 0.059
AQDFKTDLRFQSSAIGA [HHT1],1.32 ± 0.12,1.41 ± 0.14,1.24 ± 0.19,1.3 ± 0.23
KPFLKGLVNHRVGVKLK [SMX3],2.76 ± 0.042,2.21 ± 0.041,2.07 ± 0.052,1.78 ± 0.031
LPENIILTSLMRSKLEK [CSN9],2.38 ± 0.084,3.05 ± 0.063,2.78 ± 0.061,2.7 ± 0.048
ESELSLLEETQAKLKKN [SMC4],2.7 ± 0.17,3.37 ± 0.2,2.88 ± 0.23,3.11 ± 0.14
AQDEVFSLAFSPNRYWL [ASC1],2.78 ± 0.24,2.75 ± 0.17,2.54 ± 0.18,2.38 ± 0.19
VVSILEAGDSDILTTLA [RPL30],3.12 ± 0.059,2.92 ± 0.074,3.01 ± 0.068,3.03 ± 0.061

Sequence,protein stability index (doa10∆),protein stability index (pdr5∆),protein stability index (san1∆),protein stability index (ubr1∆)
NTENVESVPTPANAEPQ [ITC1],3.11 ± 0.087,3 ± 0.086,2.96 ± 0.1,3.22 ± 0.12
KPKMLPIPSKPTLFDLA [SRP68],2.48 ± 0.071,2.54 ± 0.072,2.31 ± 0.099,2.53 ± 0.06
AVTHNLYYDEDINVESL [PUP2],3.16 ± 0.11,3.25 ± 0.088,3.05 ± 0.18,2.89 ± 0.06
DVAIENNTLSRYADAGN [RRP43],3.36 ± 0.045,3.32 ± 0.048,3.35 ± 0.035,3.44 ± 0.041
TVRLVNLFSSTGFKGLL [SRB2],2.31 ± 0.073,2.73 ± 0.055,2.76 ± 0.06,2.9 ± 0.039
TRVTRLSLQRANVEILA [CSL4],1.64 ± 0.042,1.78 ± 0.043,1.78 ± 0.081,2.03 ± 0.033
PMTVKLVQLPKSAMDTF [POP3],2.15 ± 0.058,2.52 ± 0.062,2.81 ± 0.053,2.88 ± 0.053
SKKLDVTVEQLRSIYHQ [NSL1],2.42 ± 0.067,2.25 ± 0.06,1.85 ± 0.055,2.08 ± 0.057
VLQYSDWESDLHIHLNQ [YDL116W/NUP84],2.48 ± 0.073,2.61 ± 0.065,2.75 ± 0.066,3.04 ± 0.081
ISPESVFGTLGELIKVN [SMC3],2.15 ± 0.06,2.25 ± 0.078,1.84 ± 0.096,1.86 ± 0.036
HLMSWSKTGIIAYSDSQ [SIN4],1.63 ± 0.11,1.59 ± 0.15,1.32 ± 0.12,2.2 ± 0.2
IHSGVLSSIESDLKKRE [YMR153W/NUP53],3.07 ± 0.084,3.17 ± 0.073,3.1 ± 0.066,3.09 ± 0.074
FPNGFKNFENGPKKNVF [RPC34],3.26 ± 0.083,3.27 ± 0.082,3.21 ± 0.062,3.44 ± 0.045
GILLLDSLIQLANRSKE [YJL039C/NUP192],1.86 ± 0.064,1.74 ± 0.059,1.64 ± 0.099,1.97 ± 0.051
MEDIEKIKPYVRSFSKA [LRP1],2.64 ± 0.062,3 ± 0.05,2.51 ± 0.069,2.74 ± 0.038
NPHDGVNSIALFVGTDR [RPN14],2.08 ± 0.14,2.42 ± 0.096,2.33 ± 0.076,2.99 ± 0.11
SITTGNDNENIVNNDLP [MED2],2.79 ± 0.051,2.78 ± 0.052,2.57 ± 0.054,2.87 ± 0.05
NTFTWNHSLQHQNESSA [RPN4],3.08 ± 0.056,3.19 ± 0.055,3.18 ± 0.058,3.17 ± 0.037
TKLRAFVYNKVNETEAI [YGR119C/NUP57],2.3 ± 0.084,2.69 ± 0.064,2.68 ± 0.061,2.59 ± 0.059
SGQKTNRQVMHKMGVER [SIR3],3.08 ± 0.21,3.75 ± 0.18,3.4 ± 0.25,3.27 ± 0.22
STVKKKDIVNISIPKTC [REC8],2.71 ± 0.088,2.41 ± 0.063,2.53 ± 0.084,2.62 ± 0.054
FTGNNSTPGGGSVFNMN [YOR098C/NUP1],2.9 ± 0.097,3.58 ± 0.19,,3.03 ± 0.14
KRNKYAAMLTSENAREI [RRP45],3.04 ± 0.063,3.1 ± 0.063,3.08 ± 0.057,2.96 ± 0.043
KKEKLKQENSTLLKKAN [RPC82],2.3 ± 0.074,2.81 ± 0.093,2.71 ± 0.12,2.85 ± 0.075
NVNNRFDNFLTEEELQA [BRN1],3.07 ± 0.078,2.63 ± 0.079,3 ± 0.056,2.63 ± 0.054
KSESDELQMRSFLKEGD [RRP4],3.18 ± 0.13,2.71 ± 0.23,3.09 ± 0.12,3.16 ± 0.096
